Patent US20130295102A1 (Novartis, published 2013)

Key:
Cynomolgus Factor P [1] = target: T1, Cynomolgus Factor P (cynomolgus); assay: SET, solution equilibrium titration
T1 construct: Purified from cynomolgus serum for SET/Biacore; Factor P of cynomolgus serum in the functional assays; also called Cyno Factor P; cyno FP
Protocol: (§1) In SET, a constant amount of antibody is incubated with different concentrations of antigen until equilibrium is reached. The concentration of free antibody in the equilibrated solution is determined by applying the solution on an antigen coated MSD™ plate (Meso Scale Discovery™) followed by incubation with an ECL-labeled secondary antibody and measurement of signal intensity. At low antigen concentrations, a strong signal is achieved (high concentration of free antibody which binds to the antigen on the plate) whereas for high antigen concentration, the antibody is completely antigen-captured, resulting in a low signal. If a sufficient number of antigen concentrations in a matching range are available, the titration curve allows for a reasonable determination of the affinity, using the appropriate fit model. […] The constant concentration of antibody applied in the assay should be in the range of, or below, the KD (Table 4).
(§2) Human Factor P (Complement Technology cat#: A139) and Cyno Factor P purified from cyno serum (protocol adapted from Nakano, et al., (1986) J Immunol Methods 90:77-83) were coated on standard binding MSD plates (Meso-Scale Discovery, 384-well: MSD cat#: L21XA, 96-well: MSD cat#: L15XA) at 0.2-0.3 μg/ml in 25 μl PBS and incubated overnight at 4° C. Factor P inhibitors were diluted to a fixed concentration (1 pM or 10 pM) in incubation buffer (PBS with 2% BSA (Sigma cat#: A4503) and 1% Tween20 and 1% Triton-X (Sigma cat#: 234729)), and added to a serial dilution of Factor P (human or cyno) in incubation buffer. Samples were allowed to reach equilibrium by incubation at RT overnight. Plates were washed 3× in wash buffer (PBS with 0.05% Tween20), and blocked with 100 μl incubation buffer at RT for 2 hrs. Plates were washed 3× in wash buffer. Sample containing Factor P inhibitors and Factor P titration were added to the plate (25 μl), and incubated at RT for 15 min. Plates were washed 3× in wash buffer. 25 μl detection antibody was added (Anti-Human (Goat) Sulfo-TAG, 1:1000 in incubation buffer, MSD cat#: R32AJ-1), and incubated at RT for 60 min. Plates were washed 3× in wash buffer, and 50 μl of 1×MSD Read buffer T was added (with surfactant, MSD cat#: R92TC-1). Plates were read on a MSD Spector Imager 6000.

Human Factor P [2] = target: T2, Human Factor P (human, UniProt P27918 29-469); assay: SET, solution equilibrium titration
T2 construct: Bought protein (Complement Technology cat# A139) in SET and Biacore; Factor P of human serum in the functional assays; also called FP; human FP
Protocol: as §1, §2

Cynomolgus Factor P [3] = target: T1, Cynomolgus Factor P; assay: Biacore SPR, captured Factor P
Human Factor P [4] = target: T2, Human Factor P; assay: Biacore SPR, captured Factor P
Cynomolgus Factor P [5] = target: T1, Cynomolgus Factor P; assay: cell-based or functional assay
Human Factor P [6] = target: T2, Human Factor P; assay: cell-based or functional assay

T2 sequence (P27918 29-469 limits assumed): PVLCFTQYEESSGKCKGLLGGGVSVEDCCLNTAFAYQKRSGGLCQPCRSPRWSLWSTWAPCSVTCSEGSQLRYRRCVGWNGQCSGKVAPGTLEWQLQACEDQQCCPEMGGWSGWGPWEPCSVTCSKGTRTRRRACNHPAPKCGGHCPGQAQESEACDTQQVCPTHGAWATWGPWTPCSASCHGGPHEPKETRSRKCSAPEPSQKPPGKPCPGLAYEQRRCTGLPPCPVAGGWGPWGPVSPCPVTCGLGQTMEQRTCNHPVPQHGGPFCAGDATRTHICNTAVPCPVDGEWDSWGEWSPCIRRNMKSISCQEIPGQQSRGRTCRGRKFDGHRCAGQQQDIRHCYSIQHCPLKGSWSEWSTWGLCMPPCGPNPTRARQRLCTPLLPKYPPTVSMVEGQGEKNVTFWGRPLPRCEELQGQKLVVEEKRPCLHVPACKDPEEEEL

Binder | Kd (Cynomolgus Factor P [1]) | Kd (Human Factor P [2]) | Kd (Cynomolgus Factor P [3]) | koff (Cynomolgus Factor P [3]) | kon (Cynomolgus Factor P [3]) | Kd (Human Factor P [4]) | koff (Human Factor P [4]) | kon (Human Factor P [4]) | Hemolytic assay IC50 (nM), 10% serum (Cynomolgus Factor P [5]) | Zymosan-C3b IC50 (nM), 10% serum (Cynomolgus Factor P [5]) | Hemolytic assay IC50 (nM), 10% serum (Human Factor P [6]) | Inhibition of C3a generation, 20% human serum (Human Factor P [6]) | Zymosan-C3b IC50 (nM), 10% serum (Human Factor P [6])
NVS964 (Fab, V domains shown, Disulfide-bridged Fab; also called Fab NVS964) VH: EVQLVQSGAEVKKPGASVKVSCKASGYTFTSHYMHWVRQAPGQGLEWMGKINADLGDTNYAQKFQGRVTMTRDTSISTAYMELSSLRSEDTAVYYCARDGIEHGGHYYWGYLFDIWGQGTLVTVSS VL: SYELTQPPSVSVAPGQTARISCSGDSIREYYVHWYQQKPGQAPVLVIGDDTNRPSGIPERFSGSNSGNTATLTISGTQAEDEADYYCAAWDFSPAIVFGGGTKLTVLG | 0.19 nM | 0.02 nM | 0.16 nM | 0.0002 s⁻¹ | 1e+06 M⁻¹ s⁻¹ | 0.035 nM | 4e-05 s⁻¹ | 1e+06 M⁻¹ s⁻¹ | 13.4 nM | 6.59 nM | 9.26 nM | 42.2 nM | 1.54 nM
NVS967 (Fab, V domains shown, Disulfide-bridged Fab; also called Fab NVS967) VH: EVQLVQSGAEVKKPGASVKVSCKASGYTFTSHYMHWVRQAPGQGLEWMGNINPVDGGTEYAQKFQGRVTMTRDTSISTAYMELSSLRSEDTAVYYCARDGIEHGGHYYWGYLFDIWGQGTLVTVSS VL: SYVLTQPPSVSVAPGKTARISCSGDSIREYYVHWYQQKPGQAPVLVIGDDTNRPSGIPERFSGSNSGNTATLTISRAQAGDEADYYCAAWDFSPAIVFGGGTKLTVLG | 0.28 nM | 0.04 nM | 0.315 nM | 0.0006 s⁻¹ | 1e+06 M⁻¹ s⁻¹ | 0.06 nM | 9e-05 s⁻¹ | 1e+06 M⁻¹ s⁻¹ | 14 nM | 5.92 nM | 9.61 nM | 43.5 nM | 2.53 nM
